Measured values from publication PMC5227094.

Molecular target: PSD95 (mouse (endogenous in forebrain)) (UniProt Q62108)
Assay: native gel or EMSA; BNP GluN1 immunoblot of forebrain deoxycholate extracts of WT and Glun2b^2A(CTR)/2A(CTR) mice; 1.5-NR band quantified relative to WT

UniProt Q62108, sequence (Q62108 whole entry): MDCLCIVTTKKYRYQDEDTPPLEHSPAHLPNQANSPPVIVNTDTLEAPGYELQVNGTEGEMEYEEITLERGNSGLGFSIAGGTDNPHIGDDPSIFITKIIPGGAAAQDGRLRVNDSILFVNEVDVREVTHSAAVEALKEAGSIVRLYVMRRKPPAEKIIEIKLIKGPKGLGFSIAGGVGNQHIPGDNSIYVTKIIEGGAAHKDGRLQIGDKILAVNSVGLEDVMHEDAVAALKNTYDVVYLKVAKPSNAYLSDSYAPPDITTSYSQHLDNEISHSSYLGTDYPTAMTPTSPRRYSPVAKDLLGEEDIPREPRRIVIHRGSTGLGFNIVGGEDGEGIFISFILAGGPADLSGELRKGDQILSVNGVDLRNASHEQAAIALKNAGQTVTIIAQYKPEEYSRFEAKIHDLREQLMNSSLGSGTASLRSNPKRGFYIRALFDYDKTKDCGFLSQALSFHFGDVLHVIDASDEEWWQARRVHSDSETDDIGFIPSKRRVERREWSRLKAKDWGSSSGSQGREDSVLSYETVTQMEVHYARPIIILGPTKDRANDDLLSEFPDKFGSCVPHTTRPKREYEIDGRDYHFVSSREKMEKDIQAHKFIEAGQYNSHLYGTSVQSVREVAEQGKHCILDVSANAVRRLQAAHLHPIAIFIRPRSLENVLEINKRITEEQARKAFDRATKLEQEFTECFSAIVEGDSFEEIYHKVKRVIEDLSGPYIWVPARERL

GluN2B with its C-terminal domain replaced by that of GluN2A (Glun2b^2A(CTR)/2A(CTR) knock-in)
1.5-NR, % of WT: 6 % of WT
